Results reported in patent US7507716B2, “Method for treating pain with prolactin antagonists” (Board of Regents, The University of Texas System, priority 2005, dated 2009).

B1: PRL: Ovine PRL [oPRL-21, BIO] provided by NHPP; prolactin polypeptide hormone (protein, UniProt P01240 31-229, looked up)
Prolactin: TPVCPNGPGNCQVSLRDLFDRAVMVSHYIHNLSSEMFNEFDKRYAQGKGFITMALNSCHTSSLPTPEDKEQAQQTHHEVLMSLILGLLRSWNDPLYHLVTEVRGMKGVPDAILSRAIEIEEENKRLLEGMEMIFGQVIPGAKETEPYPVWSGLPSLQTKDEDARHSAFYNLLHCLRRDSSKIDTYLKLLNCRIIYNNNC

Tests used:
[1] = system: capsaicin-evoked nocifensive behavior; assay: Eye-wipe test (corneal capsaicin); type: in vivo, rat
Experimental: To whether this effect has relevance to capsaicin-induced nociception in the whole animal, corneal wipe tests were performed. In this test, corneal application of capsaicin induces a brief nocifensive behavior in the trigeminal region of awake animals (Price et al., 2004; Neubert et al., 2005; Tender et al., 2005). The cornea is a specialized tissue innervated by trigeminal sensory neurons including TRPV1 positive C-fibers (Guo et al., 1999). Turning to FIG. 8A, the results of immunohistochemical analysis of corneal cryosections from proestrous females reveal the presence of fibers that stain positive for both PRL-R (green) and TRPV1 (red) (FIG. 8A).
In this test, the effect of PRL pretreatment on capsaicin-induced eye wiping in proestrous rats was examined. PRL (1 μg/ul in saline) or vehicle (40 μl) was applied in the cornea immediately followed by application of 0.01% capsaicin or vehicle (40 μl) and the total time spent grooming the injected eye per 5 min bins was measured by observers blinded to treatment allocation. Data are shown as mean±SEM (n=6/group *=p<0.05 and ***=p<0.001; two-way ANOVA). […] Data are shown as mean±SEM (n=6/group; two-way ANOVA). […] Data are shown as mean±SEM (n=6/group, **=p<0.01; two-way ANOVA). The effect of PRL on capsaicin-mediated nocifensive response was assessed next in male rats, in order to determine whether the influence of PRL-signaling on nociception is conserved between gender. Corneal wipe tests were performed on age-matched male rats essentially as described above. Data in FIG. 8E are shown as mean±SEM (n=6/group, **=p<0.01; two-way ANOVA). Unexpectedly, the capsaicin-mediated nocifensive response profile of male rats is strikingly similar to that of proestrus rats (compare FIG. 8E with FIG. 8B) and estradiol-treated OVX rats (compare FIG. 8E with FIG. 8D), and divergent from that found in control OVX rats treated with vehicle.
Eye-Wipe Test OVX female rats, treated with either vehicle or E2 (5μg/day/10 days), or intact female rats in the proestrous reproductive stage were brought to a quiet, temperature controlled (22-25° C.) behavioral laboratory in individual cages where they were allowed to acclimate for at least 2 h. PRL (1 μg/μl) or vehicle was placed directly onto the right eye in a volume of 40 ul followed by application of 0.01% (40 μl) capsaicin solution as described previously (Price et al. 2004). The resulting behavioral response was measured as time spent grooming or wiping the test eye. The observers were blinded to the treatments and the data were collected in 3 bins of 5 min.

TG neurons = assay: Patch clamp, heat-evoked currents (Iheat); type: cell-based, rat; conditions: neurons from intact female rats
Experimental: TRPV1 is known to be activated by noxious heat (>42° C). Furthermore, this effect is itself sensitized by hyperalgesic agents such as bradykinin (Cesare et al., 1999) and NGF (Chuang et al., 2001; Zhu et al., 2004). To determine whether PRL sensitizes heat-evoked currents (Iheat), the effect that pre-treatment of intact female rat TG neurons with PRL has on Iheat was examined. […] Data are presented as mean±SEM (n=8-12/group, ***=p<0.001 versus vehicle control; two-tailed unpaired T test). […] (FIG. 6B) and 48° C. (FIG. 6C). Data are presented as mean±SEM (n=8-12/group, ***=p<0.001 versus vehicle control; two-tailed unpaired T test). FIG. 6D and FIG. 6E are representative traces of Iheat recordings from TG neurons pretreated with PRL or vehicle (6D); and plotting Iheat as a function of temperature (FIG. 6E). PRL lowered the activation temperature threshold and increased the magnitude of Iheat. In addition, the magnitude of the Iheat evoked at 43° C. (I43) and 48° C. (I48) points in neurons pretreated with prolactin or vehicle was measured.
Patch Clamp Electrophysiology: All recordings were performed in whole-cell voltage-clamp (Vh=−60 mV) configuration. Recordings were acquired at 22-24° C. from the somata of neurons (15-45 pF) using an Axopatch200B amplifier and pCLAMP9.0 software (Axon Instruments, Union City, Calif.). Data were filtered at 0.5 kHz and sampled at 2 kHz. Borosilicate pipettes (Sutter, Novato, Calif.) were polished to resistances of 3-5 MΩ in pipette solution. Access resistance was compensated (40-80%) to 7-10 MΩ values when appropriate. Cell diameters were calculated using d=√[100*Cm/π], where d (μm) is cell diameter and Cm (pF) is membrane capacitance.
For the recording of heat-activated currents (Iheat), SES was heated on-line by a Peltier device (Warner Instruments, Hamden, Conn.) and locally delivered via a glass tube positioned in close proximity to the neuron. Temperature values were acquired with a thermister probe (0.5-1.5 mm size; Harvard Apparatus, Holliston, Mass.) situated at the orifice of the glass tube for local delivery of heated SES. […]

| Molecule | PRL sensitization of capsaicin nocifensive behavior ([1]; OVX female rats treated with estradiol) | threshold temperature for Iheat activation (TG neurons; PRL 40 nM for 5 min, n=16, vehicle 41.9±0.67) | inward currents evoked by 43° C. (I43) (TG neurons; PRL pretreatment) | inward currents evoked by 48° C. (I48) (TG neurons; PRL pretreatment) | capsaicin-responsiveness (eye wiping) ([1]; OVX female rats, PRL pretreatment) | capsaicin-mediated nocifensive response ([1]; age-matched male rats, PRL pretreatment) | capsaicin-mediated nocifensive behavior (eye wiping) ([1]; proestrous rats, PRL 1 μg/μl 40 μl on cornea, then 0.01% capsaicin) |
| --- | --- | --- | --- | --- | --- | --- | --- |
| C[C@]12CC[C@@H]3c4ccc(O)cc4CC[C@H]3[C@@H]1CC[C@@H]2O [estradiol, 17-β-estradiol] | restores PRL sensitization of capsaicin nocifensive behavior | – | – | – | – | – | – |
| B1 | – | 36.8±0.58 °C | significantly increased | significantly increased | no change in capsaicin-responsiveness was observed | influences nociceptor sensitization in male rats | significantly increases capsaicin-mediated nocifensive behavior |
